Assay results reported in US20110262529A1.

Experiments:
[1] = target: HLA-A*0201 (human), P04439; assay: T2 cell HLA-A*0201 stabilisation, affinity category by BL50
[2] = target: HLA-A*0201 (human), P04439

Row | Binder | BL50 [1] [µM] | BL50 (half-maximal binding level) [2] [µM]
1 | VLGSLAATV (modifications not checked) [pp1a-4219] | < 100 | 53.3
2 | ALSGVFCGV (modifications not checked) [pp1a-2990] | < 100 | 6.2
3 | LLFITGNTL (modifications not checked) [pp1a-3745] | 100 to 200 | 154
4 | LLCVLAALV (modifications not checked) [pp1a-2755] | 100 to 200 | 187
5 | CLDAGINYV (modifications not checked) [pp1a-2187] | < 100 | 3
6 | TLGVLVPHV (modifications not checked) [pp1a-103] | < 100 | 3.1
7 | FLNRFTTTL (modifications not checked) [pp1a-3459] |  | 39.6
8 | VLLSVLQQL (modifications not checked) [pp1a-3848] | 100 to 200 | 102
9 | MLLTFLTSL (modifications not checked) [pp1a-3560] | < 100 | 47.1
10 | TLNEDLLEI (modifications not checked) [pp1a-445] |  | 19.2
11 | YLSSVLLAL (modifications not checked) [pp1a-1652] | < 100 | 6.7
12 | SLQVCVQTV (modifications not checked) [pp1a-1139] | < 100 | 4.9
13 | KLNIKLLGI (modifications not checked) [pp1a-3816] | < 100 | 68.1
14 | FLLPSLATV (modifications not checked) [pp1a-3616] |  | 31.8
15 | MLSRALKKV (modifications not checked) [pp1a-1288] | < 100 | 65.1
16 | FLITGVFDI (modifications not checked) [pp1a-651] |  | 8.4
17 | VLAWLYAAV (modifications not checked) [pp1a-3444] |  | 53
18 | QLSLPVLQV (modifications not checked) [pp1a-15] | < 100 | 75.7
19 | AMWLLLLSI (modifications not checked) [pp1a-2207] |  | 323
20 | KLSAGVEFL (modifications not checked) [pp1a-634] | < 100 | 59.8
